Reference: the Human Domainome abundance scans (Beltran et al. 2025)
± gives the uncertainty stated by the source.

B1: Formin-binding protein 4, residues 593 to 636; numbered along this chain, Q8N3X1 (parent)
chain: EINATPKGWSCHWDRDHRRYFYVNEQSGESQWEFPDGEEEEEES

Variants of: B1
Assay: abundance fitness (aPCA) (normalised: wild type 0, dead -1); higher = more abundant; growth selection in yeast, the domain comes from the species named
Details: Homo sapiens

Abundance fitness, by site and new letter:
H17: Q 0.186 ± 0.16; F -0.025 ± 0.35; L 0.007 ± 0.078; A 0.037 ± 0.07; P -1 ± 0.12; V -0.208 ± 0.086; K 0.207 ± 0.1; S -0.01 ± 0.081; M -0.235 ± 0.19; R 0.046 ± 0.058; E 0.088 ± 0.079; D -0.201 ± 0.11; W -0.486 ± 0.095; Y -0.156 ± 0.095
C11: V -0.257 ± 0.2; G 0.037 ± 0.25; K -0.025 ± 0.2
F21: T -0.111 ± 0.16; G -0.368 ± 0.058; P -0.303 ± 0.093; M -0.048 ± 0.16; R 0.187 ± 0.06; E -0.145 ± 0.089; A -0.179 ± 0.064; K -0.067 ± 0.11; W -0.275 ± 0.086; H -0.391 ± 0.11; L -0.051 ± 0.083; V 0.113 ± 0.067; C 0.058 ± 0.087; Q -0.223 ± 0.19
Y20: P -0.143 ± 0.1; M -0.205 ± 0.12; K -0.319 ± 0.28; C -0.196 ± 0.12; W 0.072 ± 0.07; G -0.605 ± 0.063; D -0.64 ± 0.13; T -0.277 ± 0.11; R -0.229 ± 0.068; E -0.488 ± 0.078; V -0.206 ± 0.068; S -0.353 ± 0.08; A -0.3 ± 0.065; Q -0.285 ± 0.16; N -0.059 ± 0.25
W32: A -0.226 ± 0.079; C -0.305 ± 0.11; E -0.273 ± 0.086; D -0.364 ± 0.14
D16: A -0.234 ± 0.063; V -0.253 ± 0.08; G -0.239 ± 0.061; W -0.218 ± 0.069; S -0.24 ± 0.09; R -0.274 ± 0.059; F -0.362 ± 0.17; L -0.447 ± 0.069; H -0.168 ± 0.088; C -0.225 ± 0.089; K -0.169 ± 0.084; Q -0.075 ± 0.12; T -0.064 ± 0.14
H12: D -0.646 ± 0.14; K -0.179 ± 0.097; E -0.049 ± 0.13; W -0.637 ± 0.094; Q -0.432 ± 0.2; L -0.306 ± 0.073; S -0.453 ± 0.1; C -0.302 ± 0.14; N -0.287 ± 0.18; Y -0.227 ± 0.15; T -0.407 ± 0.26; G -0.379 ± 0.075; R -0.17 ± 0.07; M -0.498 ± 0.13; V -0.21 ± 0.074; P -0.822 ± 0.15
S10: E -0.381 ± 0.11; T -0.288 ± 0.24; V -0.186 ± 0.1; G -0.528 ± 0.095; Q -0.183 ± 0.15; D -0.465 ± 0.11; M -0.389 ± 0.15; P -0.91 ± 0.15; R -0.265 ± 0.085; K -0.212 ± 0.15; W -1.06 ± 0.12; Y -0.521 ± 0.43; L -0.345 ± 0.12; H -0.502 ± 0.29
S30: L -0.03 ± 0.1; M 0.04 ± 0.17; R 0.27 ± 0.081; I 0.082 ± 0.13; T 0.067 ± 0.083; F -0.066 ± 0.36; G -0.023 ± 0.078; H -0.354 ± 0.17; K 0.274 ± 0.16; A 0.014 ± 0.071; P -0.174 ± 0.083; W 0.02 ± 0.11; E -0.04 ± 0.084; Q 0.15 ± 0.12; V 0.094 ± 0.072
R15: M -0.18 ± 0.11; A -0.059 ± 0.073; C -0.204 ± 0.088; L -0.167 ± 0.082; H 0.116 ± 0.096; F -0.188 ± 0.21; P -0.118 ± 0.1; G -0.032 ± 0.061; N -0.05 ± 0.12; K 0.14 ± 0.11; T -0.162 ± 0.29; Y -0.302 ± 0.2; Q 0.139 ± 0.16; E 0.123 ± 0.07; D -0.007 ± 0.15; S 0.019 ± 0.093; W -0.315 ± 0.1; I 0.373 ± 0.23
E29: P -0.883 ± 0.12; Q -0.027 ± 0.079; D -0.388 ± 0.26; T -0.269 ± 0.3; C -0.575 ± 0.18; G -0.253 ± 0.07; V -0.126 ± 0.079; I -0.062 ± 0.13; H -0.016 ± 0.094; L -0.129 ± 0.094; W -0.559 ± 0.093; A -0.052 ± 0.081; M -0.058 ± 0.096; N -0.421 ± 0.31
R18: W -0.571 ± 0.081; C -0.183 ± 0.22; L 0.016 ± 0.089; V -0.421 ± 0.1; T -0.344 ± 0.093; A 0.012 ± 0.071; G 0.063 ± 0.061; H -0.11 ± 0.16; P -0.635 ± 0.15; M -0.124 ± 0.13
N24: I -1.14 ± 0.15; V -1.08 ± 0.072; M -0.984 ± 0.099; W -0.726 ± 0.082; T -0.63 ± 0.14; G -0.611 ± 0.059; R -0.359 ± 0.058; K -0.23 ± 0.13; F -0.687 ± 0.31; E -0.335 ± 0.082; A -0.62 ± 0.068; C -0.226 ± 0.18; Y -0.998 ± 0.16; Q -0.41 ± 0.084; D -0.362 ± 0.085; L -1 ± 0.082; S -0.315 ± 0.079
